Test system: MS2 coat protein
Assay: apparent KD of MS2 coat protein; higher = weaker reporter binding
Settings: Eterna round: R107
Summary of the method: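 For every design, apparent KD is the median of normalised binding-curve fits from its clusters. The RNA switches were transcribed on-chip from Illumina sequencing clusters and titrated with SNAP-549-labelled MS2 coat protein (twofold steps, 0.7 or 1.5 nM to 3 µM; 0.8–1.5 h to 10–20 min per step). Titrations used 100 mM Tris-HCl pH 7.5, 80 mM KCl, 4 mM MgCl2, without or with constant ligand.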

[1] = input ligand: theophylline 20 uM
[2] = input ligand: tryptophan 2.4 mM
[3] = input ligand: theophylline 2 mM

| Sequence | apparent KD of MS2 coat protein (input ligand: arginine 13.2 mM) [nM] | apparent KD of MS2 coat protein [1] [nM] | apparent KD of MS2 coat protein [2] [nM] | apparent KD of MS2 coat protein [3] [nM] | apparent KD of MS2 coat protein (input ligand: none) [nM] |
| --- | --- | --- | --- | --- | --- |
| CGCCUACAGGUGUACUAUUGUGGUGAAGAUACCAGAUAGCCCAAUAUCCCUUGGCAGCUUCAGACAUGAGGAUCACCCAUGUAUC [theeternabot_exclusion_MS2_Theo_A_30] | 17.8 | 18.7 | 15.5 | – | – |
| UAAUCAGUGCCGGUUCUCGGAUCCUCAUGUCGAGGACCGGUACGGCCGCCACUCGGAACAUGAGGAUCACCCAUGUAAUAAUAAU [#10 Exclusion Tryptophan A] | 40.7 | 101 | – | 162 | – |
| AAUGUAUUCCACAUGAGGAUCACCCAUGUGCGAGGACCGGUACGGCCGCCACUCGGUGUUGGGAUCAGUUCUGAAUACAUUAAUG [XTryp A #24] | 19.1 | 19.2 | – | 20.5 | – |
| GAGUAGAGGACGGCCGCCACUAAACAUGAGGAUCACCCAUGUCGUGAUCCGUUACCUAGGGUAGAUAGGACCGGGUCAUGUAGUC [Exclusion Tryptophan B GF 17] | 47.7 | 65.8 | – | 84.7 | – |
| AAUAACAUGAGGAUCACCCAUGUAAGUAAACGAGGACCGGUACGGCCGCCACUCGAAUAAAUAAAGUACCGGUAAGAUCCAUAGA [Default title] | 17.9 | 25.9 | – | 22.5 | – |
| AUGUCCUAAACGGCCGCCACUUACAUGAGGAUCACCCAUGUUUACCGAUAUGGUUGUUGCUUUCCAAGGACCGGGUUUAAUCUGC [theeternabot_exclusion_MS2_Trp_B_49] | 13.1 | 14.9 | – | 12.7 | – |
| AAUAUAAUAGACUCGUUUUAGUAUUUGGAACGAGGACCGGUACGGCCGCCACUCGUGAUUUACAUGAGGAUCACCCAUGUUAGCA [JR_SSTryptoA_Sub003] | 15.5 | 18.4 | – | 17.5 | – |
| GCGUGGUCUGCGGCCGCCACUCAAGGAGCUACAUAGCUCCUAGACAUGAGGAUCACCCAUGUCGCGAGGACCGGGUAGAUUCUCC [Same State Typptophan B GF10] | 40.2 | 134 | – | 120 | – |
| UCCACAUGAGGAUCACCCAUGUGCCAUGAUACCAGACAUGAAAAUGUCCCUUGGCAGCAUGAGUGAGGCAUCCGAAAGGAUGCCU [Chrlice] | 149 | 260 | 409 | 38.3 | 157 |
| ACAUGAGGAUCACCCAUGUACAUGAGGGAAGGAGCGGUACAUGAGCCAGGUAGGUCGCCCAACAGCAAAUGGCAUGUACAACGGA [hhnmullin] | 33.8 | 74.3 | 63.5 | 60.5 | 78.4 |
| AUUCAGAGAUCACAUGAGGAUCACCCAUGUCGAGGACCGGUACGGCCGCCACUCGCGGCGGUGAAAAUAGAUACAAAGUAUCUAU [Ex_TrypA - Vienna approves #2] | 25.5 | 61.8 | 284 | 45.9 | 50 |
| CAAUAUAUAUGAAGGAGCGACAUGAGGAUCACCCAUGUCUACCACGUCGAAAGACGCUCAUGUCAGGUAGGUCGCAUAUAUAUUG [Astros-Eli-mod4] | 71.9 | 129 | 90.9 | 144 | 102 |
| AUAACAUGAGGAUCACCCAUGUAAGCUGAAGGAGCGGACGAAAGUCCAGGUAGGUCGCAGCACUCCUUCAACAUGGGAGAGGGAG [(M1)-(M2)-(Arg1)-(Arg2)-(A)'-(M)'-(A)''_Design1] | 39.9 | 59.8 | 53.2 | 72.5 | 64.2 |
| AUAAUGGGUAUCGGAUUAUCAUGAUAUGAUACCAGAUACUUAGAUAUCCCUUGGCAGCAUGAGGACAUGAGGAUCACCCAUGUAU [#04 Exclusion-TheophyllineA] | 32.1 | 50.3 | 39.9 | – | – |
| UUGUUGUUUGGAAGGAGCGUGGAUGAGUGUGGACAUGAGGAUCACCCAUGUUGGAUGAUACCGCAGGUAGGUCGCCGGGUGGUGG [11.aD] | 89.7 | 162 | 75.9 | 300 | 164 |

Source: the supplement of paper PMC9170038
